Measured values reported in US20030064916A1 (Scripps Research, published 2003).

B1: p53.25-35 (peptide)
peptide: LLPENNVLSPL
notes: also called hu-wt-p53 25-35; hu-p53.25-35
B2: p53.65-73 (peptide)
peptide: RMPEAAPPV
notes: also called hu-wt-p53 65-73; hu-p53.65-73

Target: HLA-A2.1 (human, UniProt A*02:01)
Experiment: competition on EA2 cells: test peptide (100 mM [sic]) vs M1 58-66 (1 mM [sic]); % inhibition of CTL clone 12 lysis, E:T 0.3:1

Binder | % inhibition of A2.1-binding of M1 (58-66)
VLSPLPSQAM [hu-wt-p53 31-40] | 23%
AAPPVAPAPAA [hu-wt-p53 69-79] | 4%
VAPAPAAPT [hu-wt-p53 73-81] | 12%
EMFRELNEA [hu-wt-p53 339-247] | 12%
LLGRDSFEV (also called mur-p53.261-269) [mur-wt-p53 261-269] | 75%
AAPPVAPA [hu-wt-p53 69-76] | 46%
WVDSTPPPGT [hu-wt-p53 146-155] | 10%
GLAPPQHLI [hu-wt-p53 187-195] | 62%
NTFRHSVVV [hu-wt-p53 210-218] | 43%
LLPENNVLS [hu-wt-p53 25-33] | 42%
B1 | 65%
AAPTPAAPA [hu-wt-p53 78-86] | 51%
NLLGRNSFEV [hu-wt-p53 263-272] | 50%
RLGILHSGTA [hu-wt-p53 110-119] | 10%
ITLEDSSGNL [hu-wt-p53 255-264] | 24%
QLAKTCPVQ [hu-wt-p53 136-144] | 15%
GTAKSVTCT [hu-wt-p53 117-125] | 12%
VTCTYSPAL [hu-wt-p53 122-130] | 12%
STPPPGTRV [p53.149-157] | 29%
AIYKQSQHM [hu-wt-p53 161-169] | 12%
B2 | 62%
AAPPVAPAPA [hu-wt-p53 69-78] | 41%
LMLSPDDIEQ [hu-wt-p53 43-52] | 25%
PLDGEYFTL (also called hu-p53.322-330) [hu-wt-p53 322-330] | 24%
VLSPLPSQA [hu-wt-p53 31-39] | 38%
DLMLSPDDI [hu-wt-p53 42-50] | 19%
